From patent publication US20240287138A1, “CYCLIC PEPTIDES FOR INHIBITING TNF RECEPTOR 1 ACTIVITY” (Merck Sharp & Dohme LLC, priority 2023, published 2024)
Bridge positions count the residues as written; N and C are the ends. Square brackets hold non-standard residues; d marks the D form. Primed or numbered codes have the meaning given here. Ends that are not written are not given here. * marks the point of attachment. Trp(βS-Me,7-OMe) = COc1cccc2c([C@H](C)[C@H](N)C(=O)O)c[nH]c12; Trp(βS-Me) = C[C@@H](c1c[nH]c2ccccc12)[C@H](N)C(=O)O; Trp(7-Cl) = N[C@@H](Cc1c[nH]c2c(Cl)cccc12)C(=O)O; Biotin = O=C1N[C@H]2[C@H](CS[C@H]2CCCCC(=O)*)N1; Phe(4-COOH) = N[C@@H](Cc1ccc(C(=O)O)cc1)C(=O)O; Trp(7-aza) = N[C@@H](Cc1c[nH]c2ncccc12)C(=O)O; Phe(4-CH2NH2) = NCc1ccc(C[C@H](N)C(=O)O)cc1; αMeW = C[C@](N)(Cc1c[nH]c2ccccc12)C(=O)O; Ala(2-furyl) = N[C@@H](Cc1ccco1)C(=O)O; 2Nal = N[C@@H](Cc1ccc2ccccc2c1)C(=O)O; Val(3-OH) = CC(C)(O)[C@H](N)C(=O)O; Pip(4-aza) = O=C(O)[C@@H]1CNCCN1; hPhe = N[C@@H](CCc1ccccc1)C(=O)O; 3Pal = N[C@@H](Cc1cccnc1)C(=O)O; 4Pal = N[C@@H](Cc1ccncc1)C(=O)O; NMeE = CN[C@@H](CCC(=O)O)C(=O)O; Cit = NC(=O)NCCC[C@H](N)C(=O)O; NMeS = CN[C@@H](CO)C(=O)O; αMeS = C[C@](N)(CO)C(=O)O; NMeA = CN[C@@H](C)C(=O)O; Nle = CCCC[C@H](N)C(=O)O; Pip2c = not defined here; dNMeA = CN[C@H](C)C(=O)O; Ahp′ = not defined here; Dap = NC[C@H](N)C(=O)O; AEA = NCCOCC(=O)O; Sar = CNCC(=O)O

T1: TNFR1 on THP-1 Lucia NF-kB reporter cells, P19438
T1 chain: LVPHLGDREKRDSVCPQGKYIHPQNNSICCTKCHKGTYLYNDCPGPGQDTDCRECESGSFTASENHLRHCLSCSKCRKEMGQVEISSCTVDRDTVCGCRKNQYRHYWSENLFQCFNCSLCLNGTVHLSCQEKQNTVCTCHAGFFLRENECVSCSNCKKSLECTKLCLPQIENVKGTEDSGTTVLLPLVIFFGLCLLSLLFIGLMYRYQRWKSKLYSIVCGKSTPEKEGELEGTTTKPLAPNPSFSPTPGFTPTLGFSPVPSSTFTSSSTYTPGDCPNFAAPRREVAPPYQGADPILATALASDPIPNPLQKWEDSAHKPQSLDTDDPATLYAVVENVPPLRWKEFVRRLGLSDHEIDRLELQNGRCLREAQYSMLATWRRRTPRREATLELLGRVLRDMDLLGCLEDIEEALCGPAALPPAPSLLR

T2: TNFR1 on THP-1 Lucia NF-κB cells, P19438
T2 chain: T1 chain

T3: Recombinant human TNFR1 extracellular domain (ECD) protein, biotinylated via C-terminal avi-tag (human)
T3 chain: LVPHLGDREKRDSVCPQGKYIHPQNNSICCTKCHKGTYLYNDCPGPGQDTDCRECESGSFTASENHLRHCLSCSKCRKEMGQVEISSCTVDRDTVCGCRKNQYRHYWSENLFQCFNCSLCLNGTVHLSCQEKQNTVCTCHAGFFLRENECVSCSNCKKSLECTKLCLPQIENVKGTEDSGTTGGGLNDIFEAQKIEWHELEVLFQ

T4: C'-terminally 6His-tagged human soluble TNFR1 (sTNFR1, residues 1-211) (human)
T4 chain: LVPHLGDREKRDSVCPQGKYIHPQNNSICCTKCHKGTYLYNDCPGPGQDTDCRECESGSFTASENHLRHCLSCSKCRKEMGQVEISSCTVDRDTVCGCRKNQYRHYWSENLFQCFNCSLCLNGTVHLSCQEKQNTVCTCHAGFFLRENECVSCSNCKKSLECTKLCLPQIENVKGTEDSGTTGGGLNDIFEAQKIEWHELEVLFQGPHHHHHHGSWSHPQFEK

B1: SEQ ID NO. 260 (peptide)
peptide: {CH2CO}-[hPhe]YSW[NMeA]N[4Pal]W[αMeS][Phe(4-COOH)]R[Sar]WC-NH2
modifications: thioether N-14
SMILES: C[C@H]1C(=O)N[C@@H](CC(N)=O)C(=O)N[C@@H](Cc2ccncc2)C(=O)N[C@@H](Cc2c[nH]c3ccccc23)C(=O)N[C@@](C)(CO)C(=O)N[C@@H](Cc2ccc(C(=O)O)cc2)C(=O)N[C@@H](CCCNC(=N)N)C(=O)N(C)CC(=O)N[C@@H](Cc2c[nH]c3ccccc23)C(=O)N[C@H](C(N)=O)CSCC(=O)N[C@@H](CCc2ccccc2)C(=O)N[C@@H](Cc2ccc(O)cc2)C(=O)N[C@@H](CO)C(=O)N[C@@H](Cc2c[nH]c3ccccc23)C(=O)N1C
B2: SEQ ID NO. 256 (peptide)
peptide: {CH2CO}-KYSW[dP][Cit][4Pal]W[αMeS][Phe(4-COOH)]Y[Sar]WC-NH2
modifications: thioether N-14
SMILES: CN1CC(=O)N[C@@H](Cc2c[nH]c3ccccc23)C(=O)N[C@H](C(N)=O)CSCC(=O)N[C@@H](CCCCN)C(=O)N[C@@H](Cc2ccc(O)cc2)C(=O)N[C@@H](CO)C(=O)N[C@@H](Cc2c[nH]c3ccccc23)C(=O)N2CCC[C@@H]2C(=O)N[C@@H](CCCNC(N)=O)C(=O)N[C@@H](Cc2ccncc2)C(=O)N[C@@H](Cc2c[nH]c3ccccc23)C(=O)N[C@@](C)(CO)C(=O)N[C@@H](Cc2ccc(C(=O)O)cc2)C(=O)N[C@@H](Cc2ccc(O)cc2)C1=O
B3: SEQ ID NO. 242 (peptide)
peptide: {CH2CO}-KYSW[dP]Q[4Pal]W[αMeS][Phe(4-COOH)]Y[Sar]WC-NH2
modifications: thioether N-14
SMILES: CN1CC(=O)N[C@@H](Cc2c[nH]c3ccccc23)C(=O)N[C@H](C(N)=O)CSCC(=O)N[C@@H](CCCCN)C(=O)N[C@@H](Cc2ccc(O)cc2)C(=O)N[C@@H](CO)C(=O)N[C@@H](Cc2c[nH]c3ccccc23)C(=O)N2CCC[C@@H]2C(=O)N[C@@H](CCC(N)=O)C(=O)N[C@@H](Cc2ccncc2)C(=O)N[C@@H](Cc2c[nH]c3ccccc23)C(=O)N[C@@](C)(CO)C(=O)N[C@@H](Cc2ccc(C(=O)O)cc2)C(=O)N[C@@H](Cc2ccc(O)cc2)C1=O
B4: SEQ ID NO. 226 (peptide)
peptide: {CH2CO}-[Ahp′]Y[AlaPiperaz][Trp(βS-Me)][dP]N[4Pal][Trp(7-Cl)][αMeS][Phe(4-COOH)][3Pal][Sar][αMeW]C-NH2
modifications: thioether N-14; reading uncertain; also: printed as cyclo(ClAc-Ahp-Y-AlaPiperaz-SbMeW-dP-N-4Pal-Trp7Cl-aMeS-Phe4COOH-3Pal-Sar-aMeW-C)-NH2
B5: SEQ ID NO. 236 (peptide)
peptide: {CH2CO}-[Nle][4Pal][Pip(4-aza)]W[dP]N[Ala(2-furyl)][Trp(7-Cl)][αMeS][Phe(4-COOH)]Y[Sar][Trp(βS-Me,7-OMe)]C-NH2
modifications: thioether N-14
SMILES: CCCC[C@@H]1NC(=O)CSC[C@@H](C(N)=O)NC(=O)[C@H]([C@@H](C)c2c[nH]c3c(OC)cccc23)NC(=O)CN(C)C(=O)[C@H](Cc2ccc(O)cc2)NC(=O)[C@H](Cc2ccc(C(=O)O)cc2)NC(=O)[C@](C)(CO)NC(=O)[C@H](Cc2c[nH]c3c(Cl)cccc23)NC(=O)[C@H](Cc2ccco2)NC(=O)[C@H](CC(N)=O)NC(=O)[C@H]2CCCN2C(=O)[C@H](Cc2c[nH]c3ccccc23)NC(=O)[C@@H]2CNCCN2C(=O)[C@H](Cc2ccncc2)NC1=O
B6: SEQ ID NO. 237 (peptide)
peptide: {CH2CO}-[Ahp′][4Pal]S[Trp(βS-Me)][dP]N[Phe(4-COOH)][2Nal][αMeS][Phe(4-COOH)]H[Sar][αMeW]C-NH2
modifications: thioether N-14; reading uncertain; also: printed as cyclo(ClAc-Ahp-4Pal-S-SbMeW-dP-N-Phe4COOH-2Nal-aMeS-Phe4COOH-H-Sar-aMeW-C)-NH2
B7: SEQ ID NO. 264 (peptide)
peptide: {CH2CO}-[Nle]H[Pip2c][Trp(7-aza)][NMeE]N[4Pal][Trp(7-Cl)][αMeS][Phe(4-COOH)]Y[Sar][Trp(βS-Me,7-OMe)]C-NH2
modifications: thioether N-14; reading uncertain; also: printed as cyclo(ClAc-Nle-H-Pip2c-Trp7az-NMeE-N-4Pal-Trp7Cl-aMeS-Phe4COOH-Y-Sar-SbMeW7OMe-C)-NH2
B8: SEQ ID NO. 217 (peptide)
peptide: {CH2CO}-[Nle]H[Val(3-OH)][Trp(7-aza)][NMeE]N[4Pal][Trp(7-Cl)][αMeS][Phe(4-COOH)]Y[Sar][Trp(βS-Me,7-OMe)]C-NH2
modifications: thioether N-14
SMILES: CCCC[C@@H]1NC(=O)CSC[C@@H](C(N)=O)NC(=O)[C@H]([C@@H](C)c2c[nH]c3c(OC)cccc23)NC(=O)CN(C)C(=O)[C@H](Cc2ccc(O)cc2)NC(=O)[C@H](Cc2ccc(C(=O)O)cc2)NC(=O)[C@](C)(CO)NC(=O)[C@H](Cc2c[nH]c3c(Cl)cccc23)NC(=O)[C@H](Cc2ccncc2)NC(=O)[C@H](CC(N)=O)NC(=O)[C@H](CCC(=O)O)N(C)C(=O)[C@H](Cc2c[nH]c3ncccc23)NC(=O)[C@H](C(C)(C)O)NC(=O)[C@H](Cc2c[nH]cn2)NC1=O
B9: SEQ ID NO. 255 (peptide)
peptide: {CH2CO}-[Nle][4Pal][Pip(4-aza)][Trp(7-aza)][NMeE]N[4Pal][Trp(7-Cl)][αMeS][Phe(4-COOH)]Y[Sar][Trp(βS-Me,7-OMe)]CGEE-NH2
modifications: thioether N-14
SMILES: CCCC[C@@H]1NC(=O)CSC[C@@H](C(=O)NCC(=O)N[C@@H](CCC(=O)O)C(=O)N[C@@H](CCC(=O)O)C(N)=O)NC(=O)[C@H]([C@@H](C)c2c[nH]c3c(OC)cccc23)NC(=O)CN(C)C(=O)[C@H](Cc2ccc(O)cc2)NC(=O)[C@H](Cc2ccc(C(=O)O)cc2)NC(=O)[C@](C)(CO)NC(=O)[C@H](Cc2c[nH]c3c(Cl)cccc23)NC(=O)[C@H](Cc2ccncc2)NC(=O)[C@H](CC(N)=O)NC(=O)[C@H](CCC(=O)O)N(C)C(=O)[C@H](Cc2c[nH]c3ncccc23)NC(=O)[C@@H]2CNCCN2C(=O)[C@H](Cc2ccncc2)NC1=O

Target: T1, TNFR1 on THP-1 Lucia NF-kB reporter …
Assay: cell-based or functional assay

With {CH2CO}-FYSW[Sar]NYWSYY[Sar]WCG[AEA]K(Biotin) (thioether N-14) [SEQ ID NO. 1] as the binder, how does the THP-1 IC50 read?
The THP-1 IC50 was 227 nM.

Target: T2, TNFR1 on THP-1 Lucia NF-κB cells, P19438
Assay: cell-based or functional assay

Which THP-1 IC50 does the source give for B1 here?
The THP-1 IC50 was 50.1 nM.

B2 was tested. Which THP-1 IC50 did it give?
Its THP-1 IC50 is 6.1 nM.

B3 was tested. Which THP-1 IC50 did it give?
The THP-1 IC50 was 3 nM.

Target: T3, Recombinant human TNFR1 extracellular …
Assay: SPR, peptide analyte on captured biotinylated TNFR1 ECD

Which Kd does the source give for B1 here?
Its Kd is 6 nM.

How did the Kd turn out when B2 was run?
Its Kd is 1.4 nM.

How did the Kd turn out when B3 was run?
The Kd was 0.3 nM.

These binders were tested against C'-terminally 6His-tagged human soluble TNFR1 (sTNFR1, residues 1-211) (human) (assay: TR-FRET displacement of biotinylated peptide SEQ ID NO. 1 from sTNFR1-6His).

How did the IC50 turn out when B4 was run?
Its IC50 is 1.16 nM.

With B5 as the binder, how does the IC50 read?
The IC50 was 0.9 nM.

Which IC50 does the source give for B6 here?
Its IC50 is 13 nM.

With B7 as the binder, how does the IC50 read?
Its IC50 is 1.49 nM.

With B8 as the binder, how does the IC50 read?
Its IC50 is 1 nM.

What about the Kd^app of the same binder?
The Kd^app was 0.73 nM.

Which IC50 does the source give for {CH2CO}-[LysN3][4Pal][Dap][Trp(βS-Me)][dP]N[4Pal][Trp(7-Cl)][αMeS][Phe(4-COOH)][Phe(4-CH2NH2)][Sar][αMeW]C-NH2 (thioether N-14) [SEQ ID NO. 245] here?
The IC50 was 0.95 nM.

For {CH2CO}-[Nle][4Pal][NMeS]W[NMeE]N[4Pal][Trp(7-Cl)][αMeS][Phe(4-COOH)][Phe3CONH2][Sar][Trp(βS-Me,7-OMe)]C-NH2 (thioether N-14) [SEQ ID NO. 270], which IC50 is on record?
The IC50 was 0.55 nM.

For B9, which IC50 is on record?
Its IC50 is 0.7 nM.

And the Kd^app?
The Kd^app was 1.01 nM.

How did the IC50 turn out when {CH2CO}-[Nle][4Pal][Pip2c]W[dP]N[4Pal][Trp(7-Cl)][αMeS][Phe(4-COOH)]Y[dNMeA][Trp(βS-Me,7-OMe)]C-NH2 (thioether N-14; reading uncertain) [SEQ ID NO. 276] was run?
The IC50 was 2.41 nM.

Target: T4, C'-terminally 6His-tagged human soluble …
Assay: as above

Which IC50 does the source give for B1 here?
Its IC50 is 10.2 nM.

B2 was tested. Which IC50 did it give?
The IC50 was 1.84 nM.

B3 was tested. Which IC50 did it give?
Its IC50 is 1.21 nM.
